According to article PMC8328514, “Homo-oligomerization of the human adenosine A2A receptor is driven by the intrinsically disordered C-terminus” (eLife, 2021):
Substitutions are numbered along the chain they refer to. Numbers in names are those of the source.

B1: human adenosine A2A receptor, full-length wild type (receptor, UniProt P29274 1-412, looked up)
chain: MPIMGSSVYITVELAIAVLAILGNVLVCWAVWLNSNLQNVTNYFVVSLAAADIAVGVLAIPFAITISTGFCAACHGCLFIACFVLVLTQSSIFSLLAIAIDRYIAIRIPLRYNGLVTGTRAKGIIAICWVLSFAIGLTPMLGWNNCGQPKEGKNHSQGCGEGQVACLFEDVVPMNYMVYFNFFACVLVPLLLMLGVYLRIFLAARRQLKQMESQPLPGERARSTLQKEVHAAKSLAIIVGLFALCWLPLHIINCFTFFCPDCSHAPLWLMYLAIVLSHTNSVVNPFIYAYRIREFRQTFRKIIRSHVLRQQEPFKAAGTSARVLAAHGSDGEQVSLRLNGHPPGVWANGSAPHPERRPNGYALGLVSGGSAQESQGNTGLPDVELLSHELKGVCPEPPGLDDPLAQDGAGVS
notes: adenosine A2A receptor, human, full-length wild type; also called A2AR-WT; A2AR-FL-WT
B2: A2AR-Q372ΔC (domain or fragment, human, UniProt P29274 1-372, looked up)
chain: MPIMGSSVYITVELAIAVLAILGNVLVCWAVWLNSNLQNVTNYFVVSLAAADIAVGVLAIPFAITISTGFCAACHGCLFIACFVLVLTQSSIFSLLAIAIDRYIAIRIPLRYNGLVTGTRAKGIIAICWVLSFAIGLTPMLGWNNCGQPKEGKNHSQGCGEGQVACLFEDVVPMNYMVYFNFFACVLVPLLLMLGVYLRIFLAARRQLKQMESQPLPGERARSTLQKEVHAAKSLAIIVGLFALCWLPLHIINCFTFFCPDCSHAPLWLMYLAIVLSHTNSVVNPFIYAYRIREFRQTFRKIIRSHVLRQQEPFKAAGTSARVLAAHGSDGEQVSLRLNGHPPGVWANGSAPHPERRPNGYALGLVSGGSAQ
notes: adenosine A2A receptor, human, C-terminus truncated at site Q372 (lacks residue C394)
B3: A2AR-FL-ERR:AAA (receptor, human, UniProt P29274 1-412, looked up)
chain: B1 chain with E355A, R356A, R357A
notes: adenosine A2A receptor, human, full length, residues 355ERR357 substituted by 355AAA357; also called A2AR-ERR:AAA variant of A2AR-FL-WT
B4: A2AR-N359ΔC (protein)
chain: MPIMGSSVYITVELAIAVLAILGNVLVCWAVWLNSNLQNVTNYFVVSLAAADIAVGVLAIPFAITISTGFCAACHGCLFIACFVLVLTQSSIFSLLAIAIDRYIAIRIPLRYNGLVTGTRAKGIIAICWVLSFAIGLTPMLGWNNCGQPKEGKNHSQGCGEGQVACLFEDVVPMNYMVYFNFFACVLVPLLLMLGVYLRIFLAARRQLKQMESQPLPGERARSTLQKEVHAAKSLAIIVGLFALCWLPLHIINCFTFFCPDCSHAPLWLMYLAIVLSHTNSVVNPFIYAYRIREFRQTFRKIIRSHVLRQQEPFKAAGTSARVLAAHGSDGEQVSLRLNGHPPGVWANGSAPHPERRPN
B5: A2AR-N359ΔC with the ERR:AAA mutations (domain or fragment, human, UniProt P29274 1-359, looked up)
chain: B4 chain with E355A, R356A, R357A
notes: adenosine A2A receptor, human, C-terminus truncated at site N359, residues 355ERR357 substituted by 355AAA357; also called A2AR-ERR:AAA variant of A2AR-N359ΔC; N359ΔC ERR:AAA
B6: A2AR-C394S (receptor, human, UniProt P29274 1-412, looked up)
chain: B1 chain with C394S
notes: adenosine A2A receptor, human, with C394S; also called A2AR-C394X variant
B7: A2AR-C394X variant with valine at 394 (receptor, human, UniProt P29274 1-412, looked up)
chain: B1 chain with C394V
notes: also called A2AR-C394X (valine)
B8: A2AR-C394X variant with leucine at 394 (receptor, human, UniProt P29274 1-412, looked up)
chain: B1 chain with C394L
notes: also called A2AR-C394X (leucine)
B9: A2AR-C394X variant with methionine at 394 (receptor, human, UniProt P29274 1-412, looked up)
chain: B1 chain with C394M
notes: also called A2AR-C394X (methionine)
B10: A2AR-C394X variant with alanine at 394 (receptor, human, UniProt P29274 1-412, looked up)
chain: B1 chain with C394A
notes: also called A2AR-C394X (alanine)
B11: A2AR-G344ΔC (domain or fragment, human, UniProt P29274 1-344, looked up)
chain: MPIMGSSVYITVELAIAVLAILGNVLVCWAVWLNSNLQNVTNYFVVSLAAADIAVGVLAIPFAITISTGFCAACHGCLFIACFVLVLTQSSIFSLLAIAIDRYIAIRIPLRYNGLVTGTRAKGIIAICWVLSFAIGLTPMLGWNNCGQPKEGKNHSQGCGEGQVACLFEDVVPMNYMVYFNFFACVLVPLLLMLGVYLRIFLAARRQLKQMESQPLPGERARSTLQKEVHAAKSLAIIVGLFALCWLPLHIINCFTFFCPDCSHAPLWLMYLAIVLSHTNSVVNPFIYAYRIREFRQTFRKIIRSHVLRQQEPFKAAGTSARVLAAHGSDGEQVSLRLNGHPPG
notes: adenosine A2A receptor, human, C-terminus truncated at site G344
B12: A2AR-P395ΔC (domain or fragment, human, UniProt P29274 1-395, looked up)
chain: MPIMGSSVYITVELAIAVLAILGNVLVCWAVWLNSNLQNVTNYFVVSLAAADIAVGVLAIPFAITISTGFCAACHGCLFIACFVLVLTQSSIFSLLAIAIDRYIAIRIPLRYNGLVTGTRAKGIIAICWVLSFAIGLTPMLGWNNCGQPKEGKNHSQGCGEGQVACLFEDVVPMNYMVYFNFFACVLVPLLLMLGVYLRIFLAARRQLKQMESQPLPGERARSTLQKEVHAAKSLAIIVGLFALCWLPLHIINCFTFFCPDCSHAPLWLMYLAIVLSHTNSVVNPFIYAYRIREFRQTFRKIIRSHVLRQQEPFKAAGTSARVLAAHGSDGEQVSLRLNGHPPGVWANGSAPHPERRPNGYALGLVSGGSAQESQGNTGLPDVELLSHELKGVCP
notes: adenosine A2A receptor, human, C-terminus truncated at site P395
B13: A2AR-G349ΔC (domain or fragment, human, UniProt P29274 1-349, looked up)
chain: MPIMGSSVYITVELAIAVLAILGNVLVCWAVWLNSNLQNVTNYFVVSLAAADIAVGVLAIPFAITISTGFCAACHGCLFIACFVLVLTQSSIFSLLAIAIDRYIAIRIPLRYNGLVTGTRAKGIIAICWVLSFAIGLTPMLGWNNCGQPKEGKNHSQGCGEGQVACLFEDVVPMNYMVYFNFFACVLVPLLLMLGVYLRIFLAARRQLKQMESQPLPGERARSTLQKEVHAAKSLAIIVGLFALCWLPLHIINCFTFFCPDCSHAPLWLMYLAIVLSHTNSVVNPFIYAYRIREFRQTFRKIIRSHVLRQQEPFKAAGTSARVLAAHGSDGEQVSLRLNGHPPGVWANG
notes: adenosine A2A receptor, human, C-terminus truncated at site G349
B14: A2AR-P354ΔC (domain or fragment, human, UniProt P29274 1-354, looked up)
chain: MPIMGSSVYITVELAIAVLAILGNVLVCWAVWLNSNLQNVTNYFVVSLAAADIAVGVLAIPFAITISTGFCAACHGCLFIACFVLVLTQSSIFSLLAIAIDRYIAIRIPLRYNGLVTGTRAKGIIAICWVLSFAIGLTPMLGWNNCGQPKEGKNHSQGCGEGQVACLFEDVVPMNYMVYFNFFACVLVPLLLMLGVYLRIFLAARRQLKQMESQPLPGERARSTLQKEVHAAKSLAIIVGLFALCWLPLHIINCFTFFCPDCSHAPLWLMYLAIVLSHTNSVVNPFIYAYRIREFRQTFRKIIRSHVLRQQEPFKAAGTSARVLAAHGSDGEQVSLRLNGHPPGVWANGSAPHP
notes: adenosine A2A receptor, human, C-terminus truncated at site P354

Target: the molecule itself
Test: SEC; consecutive rounds of SEC: a first round separates monomer from dimer/oligomer, a second round is run on the SEC-separated populations; total oligomer level relative to the monomer

Row | Protein | total oligomer level (relative to monomer), SEC-separated monomer after redistribution [arbitrary units] | total oligomer level (relative to monomer), initial sample [arbitrary units]
1 | B1 | 1.6 | 2.87
2 | B2 | 1.4 | 1.49

target: P29274; test: SEC; Superdex 200 10/300 GL; ligand-active receptor in running buffer 150 mM NaCl, 50 mM sodium phosphate, 10% glycerol, 0.1% DDM, 0.1% CHAPS, 0.02% CHS, pH 8.0; 4°C; HMW oligomer and dimer peak areas (Gaussian fit) relative to the monomer peak

Row | Protein | HMW oligomer + dimer level (relative to monomer) | HMW oligomer level (relative to monomer)
3 | B1 | WT: 1.34 | ctrl: 0.88
4 | B3 | – | ERR:AAA: 0.66
5 | B4 | – | ctrl: 0.68
6 | B5 | – | ERR:AAA: 0.38

Target: the molecule itself
Test: as above

Row | Protein | total oligomer level (relative to monomer) [arbitrary units] | binding result | dimer level (relative to monomer) [arbitrary units]
7 | B1 | 1.37 | – | –
8 | B6 | – | binds | –
9 | B3 | 0.94 | – | 0.29
10 | B7 | – | binds | –
11 | B8 | – | binds | –
12 | B9 | – | binds | –
13 | B10 | – | binds | –
14 | B11 | – | binds | –
15 | B12 | – | binds | –
16 | B5 | 0.85 | – | 0.48
17 | B13 | – | binds | –
18 | B14 | 0.62 | – | 0.19

Target: the molecule itself
Test: SDS-PAGE and western blot densitometry of SEC-separated dimer; SEC-separated dimers incubated without or with 5 mM TCEP, then SDS-PAGE and western blot; dimer band area relative to monomer band area

Row | Protein | dimer level (relative to monomer) with 5 mM TCEP [arbitrary units] | dimer level (relative to monomer) without TCEP [arbitrary units]
19 | B1 | 0.51 | 1.14
20 | B2 | 0.22 | 0.68
